For the series, the target named is T1, His-RAX (S130P) (Mus musculus (cDNA from L929 cells), UniProt Q9WTX2 1-313, S130P).
T1 sequence: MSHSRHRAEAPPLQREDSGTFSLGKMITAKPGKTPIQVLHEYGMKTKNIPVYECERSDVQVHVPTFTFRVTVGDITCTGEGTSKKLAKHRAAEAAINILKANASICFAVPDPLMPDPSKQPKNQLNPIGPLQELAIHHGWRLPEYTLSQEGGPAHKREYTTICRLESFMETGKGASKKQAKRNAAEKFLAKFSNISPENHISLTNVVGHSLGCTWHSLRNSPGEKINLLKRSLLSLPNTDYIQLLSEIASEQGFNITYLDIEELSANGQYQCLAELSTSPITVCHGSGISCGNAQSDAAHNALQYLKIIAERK
Kind of series: EMSA; 20 mM Tris pH 7.5, 50 mM KCl, 2 mM MgCl2, 2 mM MnCl2, 5% glycerol; EMSA 15 min at room temperature, 5% acrylamide gel in 0.25x TBE run cold. The note with it: protein: recombinant; blunt. A general note: In EMSA bound probe runs differently from free probe, usually more slowly.

B1: 30-bp dsRNA probe (dsRNA)
RNA 1: GGGAACAAAAGCUGGGUACCGGGCCCCCCC
RNA 2: GGGGGGGCCCGGUACCCAGCUUUUGUUCCC
B1: the binding result was “no binding”.

Values taken from article PMC3237451, “Missense Mutation in the Second RNA Binding Domain Reveals a Role for Prkra (PACT/RAX) during Skull Development”.
